# Patent US20040014138A1 (published 2004)
# Target: T1, bovine serum albumin (bovine, UniProt P02769 25-607)
# T1 construct: Negative control coating protein in the enzyme capture assay; also called BSA
# Assay: enzyme capture assay, coated wells, APC-spiked plasma, chromogenic read-out
# Experimental: As negative controls, microtiter plate wells were coated with either 5 μg/ml HPC4 monoclonal antibody or 1% bovine serum albumin (BSA) in the same buffer. The plates were then blocked for 1 hour at 37° C. or overnight at 4° C. with 200 μl of blocking buffer (coating buffer containing 1% BSA). The solutions were gently removed from the plates by vacuum.
# To generate a standard curve for the quantitative measurement of APC in plasma, increasing amounts of APC (from 0 to 250 ng/ml) were spiked into normal pooled plasma containing 20 mM Hepes, pH 7.5, 2 units/ml heparin, 20 mM benzamidine, and 10 mM CaCl₂. The spiked plasma (100 μl) were transferred to the plates and incubated at room temperature for 1 hour. The wells were then washed three times with wash buffer (20 mM Hepes, pH 7.5, 150 mM NaCl, 0.05% Tween-20, and 5 mM CaCl₂). The chromogenic activity of APC was determined by the addition of 100 μl of Spectrozyme PCa (1 mM) in 20 mM Hepes, pH 7.5, 150 mM NaCl, 5 mM CaCl₂. The plates were immediately placed at 37° C., and substrate hydrolysis was monitored at 405 nm over time using a Vmax microplate reader (Molecular Devices Corp, Sunnyvale, Calif.). All samples were assayed in duplicates or triplicates.
# T1 sequence (P02769 25-607 limits assumed): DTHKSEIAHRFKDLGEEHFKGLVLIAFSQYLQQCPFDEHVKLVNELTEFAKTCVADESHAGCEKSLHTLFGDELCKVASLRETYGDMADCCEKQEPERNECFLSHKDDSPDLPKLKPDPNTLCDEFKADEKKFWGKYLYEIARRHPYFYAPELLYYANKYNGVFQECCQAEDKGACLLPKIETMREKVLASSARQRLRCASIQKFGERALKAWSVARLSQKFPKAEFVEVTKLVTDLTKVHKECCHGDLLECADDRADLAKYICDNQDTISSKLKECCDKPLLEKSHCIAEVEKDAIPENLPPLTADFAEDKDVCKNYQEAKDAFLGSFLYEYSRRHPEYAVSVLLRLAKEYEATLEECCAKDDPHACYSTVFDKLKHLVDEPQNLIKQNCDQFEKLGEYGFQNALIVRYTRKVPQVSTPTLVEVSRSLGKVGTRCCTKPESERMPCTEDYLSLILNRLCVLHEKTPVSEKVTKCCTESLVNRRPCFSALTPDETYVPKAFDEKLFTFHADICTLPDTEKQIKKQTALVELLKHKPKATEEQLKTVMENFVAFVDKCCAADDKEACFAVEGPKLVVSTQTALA
binder,measurement,value
"human activated protein C (enzyme, the whole natural protein is named as one piece; also called APC) chain 1: ANSFLEELRHSSLERECIEEICDFEEAKEIFQNVDDTLAFWSKHVDGDQCLVLPLEHPCASLCCGHGTCIDGIGSFSCDCRSGWEGRFCQREVSFLNCSLDNGGCTHYCLEEVGWRRCSCAPGYKLGDDLLQCHPAVKFPCGRPWKRMEKKRSHL chain 2: LIDGKMTRRGDSPWQVVLLDSKKKLACGAVLIHPSWVLTAAHCMDESKKLLVRLGEYDLRRWEKWELDLDIKEVFVHPNYSKSTTDNDIALLHLAQPATLSQTIVPICLPDSGLAERELNQAGQETLVTGWGYHSSREKEAKRNRTFVLNFIKIPVVPHNECSEVMSNMVSENMLCAGILGDRQDACEGDSGGPMVASFHGTWFLVGLVSWGEGCGLLHNYGVYTKVSRYLDWIHGHIRDKEAPQKSWAP",binding result,no binding (tested: 1% coating)
